Tested on: PSMα3
Assay: EMSA

Substance	Kd
Poly (A) RNA, oligoA	94.5 µM
Poly (AU) RNA, oligoA/oligoU duplex	61.8 µM

Reference: article doi:10.1101/2025.06.17.660072
